B1: PLAGL1 (parent)
chain: EKPPSGTKEKKHQCDHCERCFYTR

Variants of: B1
Experiment: protein stability index of a GFP-peptide fusion (GPS, HEK-293T) (PSI 1-6); higher = more stable
Conditions: c terminus: a fixed tail appended
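Also: lentivirally expressed fusions sorted by FACS into six bins by GFP to DsRed ratio, PSI derived from sequencing read proportions per bin multiplied by bin number.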

Variant	protein stability index
EKPPSGTKEKKHQCDHCETCFYTR [R19T]	3.52
EKPPSGTKEKKHQCDHCEPCFYTR [R19P]	3.3
EKPPSGTKEKKHQCDHCEACFYTR [R19A]	4.31
EKPPSGTKEKKHQCDHCEKCFYTR [R19K]	4
EKPPSGTKEKKHQCDHCENCFYTR [R19N]	4.36
EKPPSGTKEKKHQCDHCEYCFYTR [R19Y]	3.79
EKPPSGTKEKKHQCDHCEICFYTR [R19I]	3.52
EKPPSGTKEKKHQCDHCEGCFYTR [R19G]	3.24
EKPPSGTKEKKHQCDHCEMCFYTR [R19M]	3.83
EKPPSGTKEKKHQCDHCEQCFYTR [R19Q]	4.34
EKPPSGTKEKKHQCDHCECCFYTR [R19C]	3.3
EKPPSGTKEKKHQCDHCELCFYTR [R19L]	3.45
EKPPSGTKEKKHQCDNCERCFYTR [H16N]	4.72
EKPPSGTKEKKHQCDECERCFYTR [H16E]	4.17
EKPPSGTKEKKHQCDKCERCFYTR [H16K]	4.02
EKPPSGTKEKKHQCDPCERCFYTR [H16P]	3.94
EKPPSGTKEKKHQCDCCERCFYTR [H16C]	2.52
EKPPSGTKEKKHQCDQCERCFYTR [H16Q]	3.82
EKPPSFTKEKKHQCDHCERCFYTR [G6F]	3.79
EKPPSETKEKKHQCDHCERCFYTR [G6E]	4.09
EKPPSATKEKKHQCDHCERCFYTR [G6A]	3.32
EKPPSTTKEKKHQCDHCERCFYTR [G6T]	4.61
EKPPSPTKEKKHQCDHCERCFYTR [G6P]	4.37
EKPPSWTKEKKHQCDHCERCFYTR [G6W]	3.13

Variant	protein stability index
EKPPSHTKEKKHQCDHCERCFYTR [G6H]	3.68
EKPPSITKEKKHQCDHCERCFYTR [G6I]	3.17
EKPPSMTKEKKHQCDHCERCFYTR [G6M]	3.39
EKPPSSTKEKKHQCDHCERCFYTR [G6S]	3.27
EKPPSLTKEKKHQCDHCERCFYTR [G6L]	3.92
EKPPSQTKEKKHQCDHCERCFYTR [G6Q]	3.16
EKPPSNTKEKKHQCDHCERCFYTR [G6N]	3.36
EKPPSVTKEKKHQCDHCERCFYTR [G6V]	4
EKPISGTKEKKHQCDHCERCFYTR [P4I]	3.57
EKPWSGTKEKKHQCDHCERCFYTR [P4W]	2.96
EKPDSGTKEKKHQCDHCERCFYTR [P4D]	4.31
EKPYSGTKEKKHQCDHCERCFYTR [P4Y]	3.41
EKPRSGTKEKKHQCDHCERCFYTR [P4R]	4.31
EKPSSGTKEKKHQCDHCERCFYTR [P4S]	3.99
EKPVSGTKEKKHQCDHCERCFYTR [P4V]	3.19
EKLPSGTKEKKHQCDHCERCFYTR [P3L]	3.32
EKMPSGTKEKKHQCDHCERCFYTR [P3M]	3.41
EKSPSGTKEKKHQCDHCERCFYTR [P3S]	3.78
EKDPSGTKEKKHQCDHCERCFYTR [P3D]	4.19
EKRPSGTKEKKHQCDHCERCFYTR [P3R]	3.75
EKKPSGTKEKKHQCDHCERCFYTR [P3K]	3.6
EKHPSGTKEKKHQCDHCERCFYTR [P3H]	3.33
EKPPSGTKEKKHQCDHNERCFYTR [C17N]	3.76
EKPPSGTKEKKHQCDHYERCFYTR [C17Y]	3.15

Variant	protein stability index
EKPPSGTKEKKHQCDHDERCFYTR [C17D]	3.97
EKPPSGTKEKKHQCDHVERCFYTR [C17V]	4.05
EKPPSGTKEKKHQCDHLERCFYTR [C17L]	4
EKPPSGTKEKKHQCDHWERCFYTR [C17W]	3.13
EKPPSGTKEKKHQCDHRERCFYTR [C17R]	3.15
EKPPSGTKEKKHQCDHQERCFYTR [C17Q]	3.9
EKPPSGTKEKKHQCDHSERCFYTR [C17S]	3.63
EKPPSGTKEKKHQCDHFERCFYTR [C17F]	3.4
EKPPSGTKEKKHQCDHCERCAYTR [F21A]	4.06
EKPPSGTKEKKHQCDHCERCQYTR [F21Q]	5.02
EKPPSGTKEKKHQCDHCERCRYTR [F21R]	4.15
EKPPSGTKEKKHQCDHCERCTYTR [F21T]	4.26
EKPPSGTKEKKHQCDHCERCGYTR [F21G]	4.32
EKPPSGTKEKKHQCDHCERCDYTR [F21D]	4.34
EKPPSGTKEKKHQCDHCERCFSTR [Y22S]	4.17
EKPPSGTKEKKHQCDHCERCFNTR [Y22N]	4.22
EKPPSGTKEKKHQCDHCERCFETR [Y22E]	4.67
EKPPSGTKEKKHQCDHCERCFDTR [Y22D]	4.58
EKPPSGTKEKKHQCDHCERCFFTR [Y22F]	3.35
EKPPSGTKEKKHQCDHCERCFITR [Y22I]	4.17
EKPPSGTKEKKHQCDHCERCFPTR [Y22P]	4.05
EKPPSGTKEKKHQCDHCERCFGTR [Y22G]	4.03
EKPPSGTKEKKHQCKHCERCFYTR [D15K]	3.33
EKPPSGTKEKKHQCIHCERCFYTR [D15I]	2.55

Variant	protein stability index
EKPPSGTKEKKHQCHHCERCFYTR [D15H]	2.9
EKPPSGTKEKKHQCMHCERCFYTR [D15M]	2.63
EKPPSGTKEKKHQCQHCERCFYTR [D15Q]	2.7
EKPPSGTKEKKHQCTHCERCFYTR [D15T]	3.37
EKPPSGTKEKKHQSDHCERCFYTR [C14S]	4.02
EKPPSGTKEKKHQQDHCERCFYTR [C14Q]	4.06
EKPPSGTKEKKHQKDHCERCFYTR [C14K]	4.08
EKPPSGTKEKKHQEDHCERCFYTR [C14E]	4.84
EKPPSGTKEKKHQPDHCERCFYTR [C14P]	4.03
EKPPSGTKEKKHQNDHCERCFYTR [C14N]	3.71
EKPPSGTKEKKHQFDHCERCFYTR [C14F]	3.81
EKPPSGTKEKKHQIDHCERCFYTR [C14I]	3.73
EKPPSGTKEKKHQGDHCERCFYTR [C14G]	3.96
EKPPSGTKEKKHQCDHCFRCFYTR [E18F]	2.61
EKPPSGTKEKKHQCDHCLRCFYTR [E18L]	2.87
EKPPSGTKEKKHQCDHCQRCFYTR [E18Q]	2.45
EKPPSGTKEKKHQCDHCIRCFYTR [E18I]	2.63
EKPPSGTKEKKHQCDHCSRCFYTR [E18S]	2.42
EKPPSGTKEKKHQCDHCTRCFYTR [E18T]	3.62
EKPPSGTKEKKHQCDHCNRCFYTR [E18N]	2.94
EKPPSGTKEKKHQCDHCDRCFYTR [E18D]	3.12
EKPPSGTKEKKHQCDHCGRCFYTR [E18G]	3.22
EKPPSGTKEKVHQCDHCERCFYTR [K11V]	3.86
EKPPSGTKEKWHQCDHCERCFYTR [K11W]	4.32

Variant	protein stability index
EKPPSGTKEKMHQCDHCERCFYTR [K11M]	4.04
EKPPSGTKEKAHQCDHCERCFYTR [K11A]	3.73
EKPPSGTKEKSHQCDHCERCFYTR [K11S]	3.79
EKPPSGTKEKRHQCDHCERCFYTR [K11R]	3.71
EKPPSGTKEKPHQCDHCERCFYTR [K11P]	3.59
EKPPSGTKEKFHQCDHCERCFYTR [K11F]	3.67
EKPPSGTKAKKHQCDHCERCFYTR [E9A]	3.67
EKPPSGTKCKKHQCDHCERCFYTR [E9C]	4.63
EKPPSGTKVKKHQCDHCERCFYTR [E9V]	3.37
EKPPSGTKGKKHQCDHCERCFYTR [E9G]	3.75
EKPPSGTKWKKHQCDHCERCFYTR [E9W]	3.08
EKPPSGTKSKKHQCDHCERCFYTR [E9S]	3.32
EKPPSGTKLKKHQCDHCERCFYTR [E9L]	3
EKPPSGTKDKKHQCDHCERCFYTR [E9D]	3.96
EKPPSGTKYKKHQCDHCERCFYTR [E9Y]	2.6
EKPPSGTKHKKHQCDHCERCFYTR [E9H]	3.37
EKPPSGTKERKHQCDHCERCFYTR [K10R]	3.43
EKPPSGTKEYKHQCDHCERCFYTR [K10Y]	3.81
EKPPSGTKEQKHQCDHCERCFYTR [K10Q]	3.53
EKPPSGTKEWKHQCDHCERCFYTR [K10W]	3.55
EKPPSGTKEKKHQCDHCERCFYQR [T23Q]	4.01
EKPPSGTKEKKHQCDHCERCFYFR [T23F]	3.97
EKPPSGTKEKKHQCDHCERCFYMR [T23M]	4.34
EKPPSGTKEKKHQCDHCERCFYDR [T23D]	4.63

Variant	protein stability index
EKPPSGTKEKKHQCDHCERCFYYR [T23Y]	3.83
EKPPSGTKEKKHQCDHCERCFYAR [T23A]	3.89
EKPPSGTKEKKHQCDHCERCFYLR [T23L]	4.64
EKPPSGTKEKKHQCDHCERCFYGR [T23G]	4.1
EKPPSGTKEKKHQCDHCERCFYRR [T23R]	3.4
EKPPSGTKEKKHQCDHCERCFYNR [T23N]	2.86
EKPPSGTKEKKHQCDHCERCFYCR [T23C]	4.64
EKPPSGHKEKKHQCDHCERCFYTR [T7H]	3.85
EKPPSGDKEKKHQCDHCERCFYTR [T7D]	3.77
EKPPSGPKEKKHQCDHCERCFYTR [T7P]	3.74
EKPPSGAKEKKHQCDHCERCFYTR [T7A]	3.44
EKPPSGQKEKKHQCDHCERCFYTR [T7Q]	3.82
EKPPSGIKEKKHQCDHCERCFYTR [T7I]	4.11
EKPPSGVKEKKHQCDHCERCFYTR [T7V]	4.06
EKPPSGNKEKKHQCDHCERCFYTR [T7N]	3.6
EKPPSGGKEKKHQCDHCERCFYTR [T7G]	3.69
EKPPPGTKEKKHQCDHCERCFYTR [S5P]	3.54
EKPPGGTKEKKHQCDHCERCFYTR [S5G]	3.53
EKPPRGTKEKKHQCDHCERCFYTR [S5R]	3.29
EKPPCGTKEKKHQCDHCERCFYTR [S5C]	3.72
EKPPVGTKEKKHQCDHCERCFYTR [S5V]	3.83
EKPPAGTKEKKHQCDHCERCFYTR [S5A]	3.17
EKPPKGTKEKKHQCDHCERCFYTR [S5K]	3.88
EKPPLGTKEKKHQCDHCERCFYTR [S5L]	3.75

Variant	protein stability index
EVPPSGTKEKKHQCDHCERCFYTR [K2V]	3.86
EWPPSGTKEKKHQCDHCERCFYTR [K2W]	3.67
EQPPSGTKEKKHQCDHCERCFYTR [K2Q]	4.12
ELPPSGTKEKKHQCDHCERCFYTR [K2L]	3.32
EPPPSGTKEKKHQCDHCERCFYTR [K2P]	4.08
ESPPSGTKEKKHQCDHCERCFYTR [K2S]	3.95
EKPPSGTWEKKHQCDHCERCFYTR [K8W]	3.35
EKPPSGTSEKKHQCDHCERCFYTR [K8S]	3.66
EKPPSGTEEKKHQCDHCERCFYTR [K8E]	4.4
EKPPSGTKEKKHPCDHCERCFYTR [Q13P]	2.52
EKPPSGTKEKKHVCDHCERCFYTR [Q13V]	3.17
EKPPSGTKEKKHACDHCERCFYTR [Q13A]	3.4
EKPPSGTKEKKHWCDHCERCFYTR [Q13W]	2.8
EKPPSGTKEKKHRCDHCERCFYTR [Q13R]	2.77
EKPPSGTKEKKHFCDHCERCFYTR [Q13F]	3.2
EKPPSGTKEKKHQCDHCERHFYTR [C20H]	2.58
EKPPSGTKEKKHQCDHCERVFYTR [C20V]	3.06
EKPPSGTKEKKHQCDHCERLFYTR [C20L]	2.95
EKPPSGTKEKKHQCDHCERIFYTR [C20I]	2.68
EKPPSGTKEKKHQCDHCERSFYTR [C20S]	1.74
EKPPSGTKEKKEQCDHCERCFYTR [H12E]	3.04
EKPPSGTKEKKPQCDHCERCFYTR [H12P]	2.2
EKPPSGTKEKKAQCDHCERCFYTR [H12A]	2.44
EKPPSGTKEKKGQCDHCERCFYTR [H12G]	2.42

Variant	protein stability index
EKPPSGTKEKKDQCDHCERCFYTR [H12D]	3.09
EKPPSGTKEKKMQCDHCERCFYTR [H12M]	2.28
EKPPSGTKEKKVQCDHCERCFYTR [H12V]	1.99
EKPPSGTKEKKNQCDHCERCFYTR [H12N]	2.52
SKPPSGTKEKKHQCDHCERCFYTR [E1S]	3.11
YKPPSGTKEKKHQCDHCERCFYTR [E1Y]	3.04
GKPPSGTKEKKHQCDHCERCFYTR [E1G]	3.6
TKPPSGTKEKKHQCDHCERCFYTR [E1T]	3.36
QKPPSGTKEKKHQCDHCERCFYTR [E1Q]	3.87
MKPPSGTKEKKHQCDHCERCFYTR [E1M]	4.15
CKPPSGTKEKKHQCDHCERCFYTR [E1C]	3.21
EKPPSGTKEKKHQCDHCERCFYTS [R24S]	4.33
EKPPSGTKEKKHQCDHCERCFYTV [R24V]	4.07
EKPPSGTKEKKHQCDHCERCFYTI [R24I]	4.37
EKPPSGTKEKKHQCDHCERCFYTL [R24L]	4.29
EKPPSGTKEKKHQCDHCERCFYTC [R24C]	4.61
EKPPSGTKEKKHQCDHCERCFYTG [R24G]	4.24
EKPPSGTKEKKHQCDHCERCFYTD [R24D]	5.07
EKPPSGTKEKKHQCDHCERCFYTP [R24P]	4.9
EKPPSGTKEKKHQCDHCERCFYTT [R24T]	4.93

Reference: the supplement of paper PMC10567573
